Laboratory results published in patent publication US20210095265A1 (WISCONSIN ALUMNI RESEARCH FOUNDATION, published 2021).

T1: Saro_2873 S15A (subunit of BaeA variants 3:S15A and 2:S14A/3:S15A) (Novosphingobium aromaticivorans)
T1 chain: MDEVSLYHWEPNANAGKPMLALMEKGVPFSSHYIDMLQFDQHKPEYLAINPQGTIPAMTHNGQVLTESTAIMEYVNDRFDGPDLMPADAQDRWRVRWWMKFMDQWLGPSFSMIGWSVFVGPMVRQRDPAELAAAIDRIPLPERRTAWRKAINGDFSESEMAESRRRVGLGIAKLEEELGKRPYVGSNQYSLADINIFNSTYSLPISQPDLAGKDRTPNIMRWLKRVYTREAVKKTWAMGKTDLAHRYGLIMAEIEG

T2: Saro_2873 N14A (subunit of BaeA variant 3:N14A) (Novosphingobium aromaticivorans)
T2 construct: This subunit is untagged; the tag is on Saro_2872
T2 chain: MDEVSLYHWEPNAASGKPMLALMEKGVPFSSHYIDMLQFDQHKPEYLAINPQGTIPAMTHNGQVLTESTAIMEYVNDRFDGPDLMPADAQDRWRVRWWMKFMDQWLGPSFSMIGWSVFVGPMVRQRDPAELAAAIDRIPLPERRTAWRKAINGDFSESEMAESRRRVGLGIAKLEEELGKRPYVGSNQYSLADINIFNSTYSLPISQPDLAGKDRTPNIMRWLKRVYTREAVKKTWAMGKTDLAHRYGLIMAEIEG

T3: Saro_2873 polypeptide made by cell-free synthesis in its native form
T3 chain: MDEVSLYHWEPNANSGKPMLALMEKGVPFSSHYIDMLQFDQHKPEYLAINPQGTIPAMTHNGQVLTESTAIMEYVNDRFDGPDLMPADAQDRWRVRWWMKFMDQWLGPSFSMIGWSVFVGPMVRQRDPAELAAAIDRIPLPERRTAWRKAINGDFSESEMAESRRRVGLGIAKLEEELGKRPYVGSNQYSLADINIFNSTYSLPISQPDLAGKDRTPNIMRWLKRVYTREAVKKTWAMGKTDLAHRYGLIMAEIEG

T4: Saro_2873 polypeptide from Novosphingobium aromaticivorans (subunit of BaeA), co-expressed with Saro_2872 in … (Novosphingobium aromaticivorans)
T4 construct: Co-expressed with Saro_2872; also called Saro_2873 subunit; second polypeptide of BaeA
T4 chain: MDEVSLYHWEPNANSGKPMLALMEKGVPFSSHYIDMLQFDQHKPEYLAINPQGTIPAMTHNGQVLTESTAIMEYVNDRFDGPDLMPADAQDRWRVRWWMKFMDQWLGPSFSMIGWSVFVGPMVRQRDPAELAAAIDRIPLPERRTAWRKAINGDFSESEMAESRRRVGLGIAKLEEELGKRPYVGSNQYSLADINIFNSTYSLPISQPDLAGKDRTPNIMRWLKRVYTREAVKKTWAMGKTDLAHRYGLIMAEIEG

B1: Saro_2872 polypeptide from Novosphingobium aromaticivorans (subunit of BaeA), co-expressed with Saro_2873 in E. coli (enzyme)
chain: MSALLYHGEPNGASLTVLAALAETGLDIECRRIDLLAGERHSLPGIVDPVALDLSIEGEGPVLVIDGEAMTESVFLAQYLDEAAGGVGLQPTDAYARWEMMMWCRQITERLSPAAALLGNLATSQSAIAAIPAEDFAILAARIVSDDLRERWQALNDDAVNAAQVADSETKVAAAVDRCEKQLGDGREWLMGTFSIADLVTYSWLAGMEPLRPAAFADAPLVKAWLARTAARPCVQAALARATISEPLRAWAPGPEINRWG
notes: Co-expressed with Saro_2873 from one pVP302K vector; In the H2872 construct Saro_2872 lacks its native start codon; also called Saro_2872 subunit; first polypeptide of BaeA
B2: Saro_2872 S14A (subunit of BaeA variants 2:S14A and 2:S14A/3:S15A) (enzyme)
chain: MSALLYHGEPNGAALTVLAALAETGLDIECRRIDLLAGERHSLPGIVDPVALDLSIEGEGPVLVIDGEAMTESVFLAQYLDEAAGGVGLQPTDAYARWEMMMWCRQITERLSPAAALLGNLATSQSAIAAIPAEDFAILAARIVSDDLRERWQALNDDAVNAAQVADSETKVAAAVDRCEKQLGDGREWLMGTFSIADLVTYSWLAGMEPLRPAAFADAPLVKAWLARTAARPCVQAALARATISEPLRAWAPGPEINRWG
notes: The N-terminal His8-tag and Tev site are on this subunit, and its native start codon is missing; also called H2872(S14A)
B3: recombinant NaGSTNu (Nu-class glutathione-S-transferase of Novosphingobium aromaticivorans DSM 12444, Saro_2595), one subunit (enzyme)
chain: SAIAGMSSEYVPPKVWKWDKANGGAFASVNRPVAGPTSERELPVGKHPFQVYSLGTPNGQKATIMLEELLQLGFSEAEYDAWLIKIFEGDQFTSGFVDINPNSKIPAMVDRSGPEPFRVFESGAILMHLAEKFGVFLPTSGPARAECLSWLFWQVGSAPFIGGGFGHFYNYAPIKIEYAIDRYAMETKRLFDVANRRLAESRYLAGDEYTIADLATYTWFGNIYRGEAYGEAATFLSMHEYEHVGRWVGEIDARPGVLRGRLVNSSKGLAERHDASDFDALPPESLQAIVKGF
notes: also called Saro_2595 product; pdb 5uuo

Experiments:
[1] = biological target: T1, Saro_2873 S15A (subunit of BaeA …); assay: gel permeation chromatography
[2] = biological target: T2, Saro_2873 N14A (subunit of BaeA variant …); assay: gel permeation chromatography
[3] = biological target: T3, Saro_2873 polypeptide made by cell-free …
[4] = biological target: T4, Saro_2873 polypeptide from …; assay: gel permeation chromatography
[5] = biological target: the molecule itself; assay: X-ray crystal structures (pdb 5uuo, 5uun); two copies of the protein per asymmetric unit
Text: Diffraction data were obtained at the GM/CA beam-line at Argonne National Laboratory with an Eiger 16M detector (Casanas et al. 2016). Data were collected on the ammonium acetate and ammonium sulfate crystal forms using 1.033 Å (for 1.45 Å resolution) or 0.7749 Å (for 1.25 Å resolution) X-rays, respectively. Diffraction data were reduced using XDS (Kabsch 2010). Both crystals belonged to space group P2₁2₁2₁ with a predicted solvent content of 60%. The structure was solved by molecular replacement with Phaser (McCoy et al. 2007) in the Phenix suite (Adams et al. 2010), using a search model based on PDB ID 3C8E:A (ecYghU (Stourman et al. 2011)) modified with phenix.sculptor (Bunkóczi et al. 2011), based on primary sequence alignment. […] Phenix.refine (Afonine et al. 2012) and COOT (Emsley et al. 2004) were alternatively used to refine the structure and fit the model to electron density maps.

Binder	binding result [1]	binding result [2]	conversion of racemic MPHPV into GS-HPV and guaiacol (HPLC) [3]	binding result [4]	binding result [5]
B1	binds	binds	half of the MPHPV was converted into GS-HPV and guaiacol	–	–
B2	binds	–	–	binds	–
B3	–	–	–	–	binds
